Assay results: patent publication US5942405A, “Therapeutic and screening methods using C3a receptor and C3a” (priority 1997, dated 1999)

B1: rC5a: Human rC5a was expressed in E. coli and purified to homogeneity (protein, UniProt P01031 678-751, looked up)
C5a anaphylatoxin: TLQKKIEEIAAKYKHSVVKKCCYDGACVNNDETCEQRAARISLGPRCIKAFTECCVVASQLRANISHKDMQLGR
modifications: C5a anaphylatoxin recombinant, E. coli
notes: Human rC5a was expressed in E. coli and purified to homogeneity

Tests used:
C3a Receptor [1] = target: T1, C3a Receptor (Homo sapiens, UniProt Q16581); assay: Calcium mobilization by Fura 2 loaded RBL-2H3 cells stably expressing C3a Receptor; type: cell-based; set-up: cDNA encoding a complete orphan GPCR of 482 amino acids; expressed in transfected cells; details: for EC50: Fura 2 loaded RBL-2H3 cells expressing C3a Receptor, read-out: EC50, mobilization of intracellular Ca2+; for mobilization of intracellular Ca2+ (response in words): RBL-2H3 cells expressing C3a Receptor, Fig. 4: rC5a 100 nM, C3a analogue peptide 1 uM
T1 sequence (Q16581 1-482 F151C): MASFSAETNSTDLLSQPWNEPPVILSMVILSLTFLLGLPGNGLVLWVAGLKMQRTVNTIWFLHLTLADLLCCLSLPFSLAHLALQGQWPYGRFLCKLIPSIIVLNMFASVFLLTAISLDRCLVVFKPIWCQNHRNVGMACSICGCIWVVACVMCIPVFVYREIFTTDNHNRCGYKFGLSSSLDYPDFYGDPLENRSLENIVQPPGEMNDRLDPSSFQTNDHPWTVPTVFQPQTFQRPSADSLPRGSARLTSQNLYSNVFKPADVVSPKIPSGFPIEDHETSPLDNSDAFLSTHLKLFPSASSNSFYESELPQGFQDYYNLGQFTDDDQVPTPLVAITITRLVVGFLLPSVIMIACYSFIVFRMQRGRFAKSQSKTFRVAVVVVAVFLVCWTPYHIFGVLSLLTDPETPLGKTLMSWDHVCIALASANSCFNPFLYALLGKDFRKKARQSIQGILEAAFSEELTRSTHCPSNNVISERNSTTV
Method: (A) Electrophysiological response of Xenopus oocytes injected with cRNA for C3a Receptor (10 ng), total U937 RNA (25 ng), or a mixture of C3a Receptor (10 ng) and U937 RNA (25 ng) to 10 nM rC5a, 10 nM C3a analogue peptide, 10 nM platelet activating factor (PAF), 10 nM fMetLeuPhe. Inset, represents typical response of oocytes co-injected with C3a Receptor cRNA+U937 RNA to 10 nM C3a. (B) Electrophysiological response of oocytes injected with C5a-R cRNA (10 ng), U937 RNA (25 ng) or a mixture of C5a-R and U937 RNA, to 10 nM rC5a or 10 nM C3a analogue peptide. […] Calcium mobilization by Fura 2 loaded cells expressing C5a receptor (FIGS. 4A & 4C) or C3a Receptor (FIGS. 4B & 4D) in response to rC5a (10 nM, FIG. 4A or 100 nM, FIG. 4B) or C3a analogue peptide (1 uM, FIGS. 4C & 4D).
(§1) To prepare C3a Receptor for expression in mammalian cells, a 1.6 kb cDNA fragment was obtained by PCR amplification that encompassed the entire C3a Receptor open reading frame. This fragment was subcloned into KpnI/Hind III sites of the mammalian expression vector, pCDN (Aiyar, N., et al (1994) Mol. Cell. Bio. 131, 75-86). Oligonucleotide primers used for PCR amplification were 5'-GA AGT GGT ACC ATG GCG TC-3' (SEQ ID NO:4) and 5'-GC TCCAAGCTTTCACACAGTTG-3' (SEQ ID NO:5) (the translation start and stop codons are underlined). RBL-2H3 cells were electroporated with either C3a Receptor or C5a-R in the pCDN mamalian expression vector (Aiyar, N., et al (1994) Mol. Cell. Bio. 131, 75-86), exactly as described (DeMartino, J. A., et al (1994) J. Biol Chem. 269, 14446-14450). Individual G418 resistant (400 μg/ml) colonies were isolated and expanded. Clonal cell lines expressing either C3a Receptor or C5a-R were chosen for further functional and binding studies.
RBL-2H3 cells (Siraganian, R. P., et al (1982) Fed. Proc. 41, 30-34), a rat basophil cell line, when transfected with an expression plasmid encoding the C5a-R express receptors that are functionally active (DeMartino, J. A., et al (1994) J. Biol. Chem. 269, 14446-14450). RBL-2H3 cells were stably transfected with mammalian expression plasmids encoding the C5a-R or C3a Receptor and Fura 2 loaded cells were tested for a C5a or C3a induced mobilization of intracellular Ca^2+.
Fura 2 loaded clonal cell lines expressing C5a-R or C3a Receptor were assayed for functional response, Ca^2+ mobilization, as described (Saussy, D. L. Jr., et al (1989) J. Biol. Chem. 264, 19845-19855).

C3a Receptor [2] = target: T1, C3a Receptor; assay: Whole cell 125I-C3a binding to C3a Receptor expressing RBL-2H3 cells (competition and saturation); set-up: cDNA encoding a complete orphan GPCR of 482 amino acids; expressed in transfected cells; details: for IC50: RBL-2H3 cells expressing C3a Receptor, 1×10^6 cells; for IC50 / competition of 125I-C3a binding / specific binding (in words): 2.3 nM labelled C3a; for competition of 125I-C3a binding / specific binding (in words): cells expressing C3a Receptor
Description: as §1
The C3a carboxy-terminal analogue synthetic peptide, [WWGKKYRASKLGLAR (SEQ ID NO:3)] was obtained from Bachem Bioscience, Inc., King of Prussia, Pa. C3a was purchased from Advanced Research Technologies, San Diego, Calif. Human rC5a was expressed in E. coli and purified to homogeneity. Other agonists were obtained from Sigma, St. Louis, MO. C3a was radioiodinated using IODOBEADS (Pierce, Rockford Ill.) to a specific activity of 100 Cilmmol. Increasing concentrations of cold competitor were added to 1×10^6 cells in the presence of ^125 -C3a (2.3 nM), and the assay was performed essentially as described (Klos, A., et al (1992) Biochemistry 31, 11274-11282).
C3a was radioiodinated and used in whole cell binding assays to further characterize C3a Receptor. […] Curiously, HEK 293 cells stably expressing C3a Receptor mRNA by Northern Blot, neither bound nor responded to C3a (data not shown).

Molecule	EC50 (C3a Receptor [1])	mobilization of intracellular Ca2+ (response in words) (C3a Receptor [1])	mobilization of intracellular Ca2+ (response in words) (C3a Receptor [1]; listed as native human C3a)	IC50 (C3a Receptor [2])	competition of 125I-C3a binding / specific binding (in words) (C3a Receptor [2])	Bmax (C3a Receptor [2]; saturation binding and Scatchard analysis, data not shown)	Kd (C3a Receptor [2]; saturation binding and Scatchard analysis, single class of sites, data not shown)	mobilization of intracellular Ca2+ (response in words) (C3a Receptor [1]; listed as C3a synthetic peptide)
C3a: C3a was purchased from Advanced Research Technologies, San Diego; anaphylatoxin; radioiodinated for binding	0.3 nM	bind and respond	responded	3 nM	specifically bind	32,000 receptors per cell	0.3 nM	
WWGKKYRASKLGLAR [C3a analogue synthetic peptide, reference compound]	3.9 nM	respond		155 nM	specifically bind			robust response
B1		not C3a Receptor expressing cells responded			not			
